Results from PMC3978073, “Flexibility of the Linker between the Domains of DNA Methyltransferase SsoII Revealed by Small-Angle X-Ray Scattering: Implications for Transcription Regulation in SsoII Restriction–Modification Syste”.

Target: T1, M.SsoII (C5-DNA methyltransferase SsoII) (Shigella sonnei, UniProt P34879 1-379)
T1 sequence: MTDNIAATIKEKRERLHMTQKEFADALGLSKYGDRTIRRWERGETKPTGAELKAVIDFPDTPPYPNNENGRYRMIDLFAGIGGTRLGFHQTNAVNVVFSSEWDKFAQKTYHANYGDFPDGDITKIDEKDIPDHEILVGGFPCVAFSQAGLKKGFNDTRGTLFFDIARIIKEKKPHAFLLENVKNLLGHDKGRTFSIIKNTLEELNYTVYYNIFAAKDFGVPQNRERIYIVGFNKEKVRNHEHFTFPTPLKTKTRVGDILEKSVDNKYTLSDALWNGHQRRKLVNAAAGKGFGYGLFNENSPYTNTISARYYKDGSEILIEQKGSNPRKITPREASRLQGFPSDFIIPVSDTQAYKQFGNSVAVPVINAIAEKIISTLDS
Assay: EMSA (native PAGE, EtBr and Coomassie stain); AdoHcy; M.SsoII:AdoHcy:DNA 1:2:1; Complex formation: 18 mM Tris-HCl, 136 mM NaCl, 3.5 mM beta-mercaptoethanol, 10% (w/v) glycerol, pH 8.0, with AdoHcy; temperature not stated; 7% native PAGE
Details: protein: recombinant; (HisTrap purified; tag not described); blunt

B1: 15met (dsDNA)
DNA 1: AGAGCCAGGAACCGA
DNA 2: TCGGTTCCTGGCTCT
- binding result: binds
